Data taken from the supplement of paper PMC9112550, “Optimization of the antimicrobial peptide Bac7 by deep mutational scanning” (BMC Biology, 2022).

Test system: Escherichia coli TOP10
Assay: shrunken log2 fold change of peptide-encoding DNA abundance (4.5 h post-induction vs induction); higher = less antimicrobial activity (less host growth inhibition)
Settings: time post-induction: 4.5 h; library: site-saturation at positions 5, 18, 19, 20
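Also: peptides expressed intracellularly from a pBAD plasmid library in pooled LB shake-flask culture, induced with 0.3% L-arabinose, DNA abundance read by NGS, three biological replicates, DESeq2 with apeglm shrinkage.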

Sequence: RRIRFRPPRLPRPRPRPMSTPRP
- shrunken log2 fold change: -0.386

Sequence: RRIRPRPPRLPRPRPRPLTTPRP
- shrunken log2 fold change: 0.135

Sequence: RRIRTRPPRLPRPRPRPCIRPRP
- shrunken log2 fold change: -0.0289

Sequence: RRIRYRPPRLPRPRPRPLACPRP
- shrunken log2 fold change: -0.319

Sequence: RRIRHRPPRLPRPRPRPVSTPRP
- shrunken log2 fold change: -0.263

Sequence: RRIRRRPPRLPRPRPRPNPEPRP
- shrunken log2 fold change: 0.302

Sequence: RRIRYRPPRLPRPRPRPSDTPRP
- shrunken log2 fold change: -1.27

Sequence: RRIRHRPPRLPRPRPRPLFWPRP
- shrunken log2 fold change: 0.274

Sequence: RRIRNRPPRLPRPRPRPMFMPRP
- shrunken log2 fold change: -0.424

Sequence: RRIRPRPPRLPRPRPRPYSPPRP
- shrunken log2 fold change: -1.23

Sequence: RRIRTRPPRLPRPRPRPALIPRP
- shrunken log2 fold change: 0.0272

Sequence: RRIRVRPPRLPRPRPRPCSEPRP
- shrunken log2 fold change: -0.128

Sequence: RRIRIRPPRLPRPRPRPSTGPRP
- shrunken log2 fold change: -0.505

Sequence: RRIRMRPPRLPRPRPRPMYTPRP
- shrunken log2 fold change: -0.71

Sequence: RRIRKRPPRLPRPRPRPYNPPRP
- shrunken log2 fold change: -1.13

Sequence: RRIRTRPPRLPRPRPRPGFDPRP
- shrunken log2 fold change: -0.164

Sequence: RRIRGRPPRLPRPRPRPMKLPRP
- shrunken log2 fold change: 0.265

Sequence: RRIRDRPPRLPRPRPRPERLPRP
- shrunken log2 fold change: 0.659

Sequence: RRIRPRPPRLPRPRPRPQFKPRP
- shrunken log2 fold change: 0.0824

Sequence: RRIRYRPPRLPRPRPRPKCCPRP
- shrunken log2 fold change: 0.013

Sequence: RRIRTRPPRLPRPRPRPDYGPRP
- shrunken log2 fold change: 0.00355

Sequence: RRIRQRPPRLPRPRPRPWKTPRP
- shrunken log2 fold change: -0.0168

Sequence: RRIRVRPPRLPRPRPRPENPPRP
- shrunken log2 fold change: 0.0444

Sequence: RRIRLRPPRLPRPRPRPAGPPRP
- shrunken log2 fold change: 0.338

Sequence: RRIRCRPPRLPRPRPRPELSPRP
- shrunken log2 fold change: 0.52

Sequence: RRIRERPPRLPRPRPRPMSWPRP
- shrunken log2 fold change: 0.13

Sequence: RRIRMRPPRLPRPRPRPLMVPRP
- shrunken log2 fold change: 0.396

Sequence: RRIRYRPPRLPRPRPRPYMLPRP
- shrunken log2 fold change: -1.3

Sequence: RRIRDRPPRLPRPRPRPHNRPRP
- shrunken log2 fold change: -0.00159

Sequence: RRIRGRPPRLPRPRPRPFNGPRP
- shrunken log2 fold change: 0.0458

Sequence: RRIRCRPPRLPRPRPRPIQWPRP
- shrunken log2 fold change: -0.263

Sequence: RRIRHRPPRLPRPRPRPQLDPRP
- shrunken log2 fold change: 0.153

Sequence: RRIRTRPPRLPRPRPRPEWGPRP
- shrunken log2 fold change: 0.249

Sequence: RRIRERPPRLPRPRPRPHCMPRP
- shrunken log2 fold change: -0.235

Sequence: RRIRSRPPRLPRPRPRPCRAPRP
- shrunken log2 fold change: -0.0808

Sequence: RRIRLRPPRLPRPRPRPNSEPRP
- shrunken log2 fold change: -0.0888

Sequence: RRIRFRPPRLPRPRPRPPVSPRP
- shrunken log2 fold change: 0.0761

Sequence: RRIRIRPPRLPRPRPRPLRYPRP
- shrunken log2 fold change: -0.409

Sequence: RRIRERPPRLPRPRPRPGSNPRP
- shrunken log2 fold change: -0.0638

Sequence: RRIRQRPPRLPRPRPRPKCPPRP
- shrunken log2 fold change: -0.0714

Sequence: RRIRWRPPRLPRPRPRPFPCPRP
- shrunken log2 fold change: -0.0902

Sequence: RRIRERPPRLPRPRPRPMYVPRP
- shrunken log2 fold change: -0.0843

Sequence: RRIRPRPPRLPRPRPRPGYMPRP
- shrunken log2 fold change: -0.126

Sequence: RRIRIRPPRLPRPRPRPHDVPRP
- shrunken log2 fold change: 0.000407

Sequence: RRIRTRPPRLPRPRPRPEEDPRP
- shrunken log2 fold change: -0.00174

Sequence: RRIRPRPPRLPRPRPRPLWPPRP
- shrunken log2 fold change: 0.325

Sequence: RRIRYRPPRLPRPRPRPVVRPRP
- shrunken log2 fold change: -0.203

Sequence: RRIRLRPPRLPRPRPRPSWPPRP
- shrunken log2 fold change: 0.00705

Sequence: RRIRQRPPRLPRPRPRPMLNPRP
- shrunken log2 fold change: 0.014

Sequence: RRIRARPPRLPRPRPRPRTNPRP
- shrunken log2 fold change: 0.329

Sequence: RRIRERPPRLPRPRPRPLPEPRP
- shrunken log2 fold change: 0.0716

Sequence: RRIRKRPPRLPRPRPRPLANPRP
- shrunken log2 fold change: 0.029

Sequence: RRIRRRPPRLPRPRPRPADIPRP
- shrunken log2 fold change: -0.0589

Sequence: RRIRIRPPRLPRPRPRPFNWPRP
- shrunken log2 fold change: -0.155

Sequence: RRIRLRPPRLPRPRPRPHAHPRP
- shrunken log2 fold change: -0.506

Sequence: RRIRQRPPRLPRPRPRPDDVPRP
- shrunken log2 fold change: 0.064

Sequence: RRIRCRPPRLPRPRPRPHDFPRP
- shrunken log2 fold change: -0.0215

Sequence: RRIRPRPPRLPRPRPRPKCWPRP
- shrunken log2 fold change: 0.765

Sequence: RRIRARPPRLPRPRPRPFWCPRP
- shrunken log2 fold change: 0.0247

Sequence: RRIRKRPPRLPRPRPRPIAWPRP
- shrunken log2 fold change: 0.155

Sequence: RRIRPRPPRLPRPRPRPDMVPRP
- shrunken log2 fold change: -0.177

Sequence: RRIRDRPPRLPRPRPRPWVTPRP
- shrunken log2 fold change: -0.0629

Sequence: RRIRIRPPRLPRPRPRPTELPRP
- shrunken log2 fold change: -0.0944

Sequence: RRIRHRPPRLPRPRPRPTPEPRP
- shrunken log2 fold change: -0.0453

Sequence: RRIRVRPPRLPRPRPRPKKYPRP
- shrunken log2 fold change: -0.411

Sequence: RRIRVRPPRLPRPRPRPYGGPRP
- shrunken log2 fold change: -0.374

Sequence: RRIRARPPRLPRPRPRPWTFPRP
- shrunken log2 fold change: -0.0754

Sequence: RRIRDRPPRLPRPRPRPFMFPRP
- shrunken log2 fold change: 0.033

Sequence: RRIRDRPPRLPRPRPRPEAHPRP
- shrunken log2 fold change: -0.00146

Sequence: RRIRRRPPRLPRPRPRPTGKPRP
- shrunken log2 fold change: 0.901

Sequence: RRIRQRPPRLPRPRPRPVNPPRP
- shrunken log2 fold change: -0.085

Sequence: RRIRVRPPRLPRPRPRPPWVPRP
- shrunken log2 fold change: 0.297

Sequence: RRIRVRPPRLPRPRPRPRMHPRP
- shrunken log2 fold change: 0.151

Sequence: RRIRHRPPRLPRPRPRPCNKPRP
- shrunken log2 fold change: -0.395

Sequence: RRIRFRPPRLPRPRPRPNWFPRP
- shrunken log2 fold change: 0.0383

Sequence: RRIRTRPPRLPRPRPRPWRWPRP
- shrunken log2 fold change: 0.554

Sequence: RRIRGRPPRLPRPRPRPPGAPRP
- shrunken log2 fold change: 1.51

Sequence: RRIRMRPPRLPRPRPRPSMYPRP
- shrunken log2 fold change: 0.081

Sequence: RRIRTRPPRLPRPRPRPFCSPRP
- shrunken log2 fold change: 0.207

Sequence: RRIRPRPPRLPRPRPRPWAEPRP
- shrunken log2 fold change: 0.166

Sequence: RRIRPRPPRLPRPRPRPQDEPRP
- shrunken log2 fold change: 0.0996

Sequence: RRIRGRPPRLPRPRPRPDVVPRP
- shrunken log2 fold change: 0.424

Sequence: RRIRDRPPRLPRPRPRPHQHPRP
- shrunken log2 fold change: -0.308

Sequence: RRIRLRPPRLPRPRPRPTYFPRP
- shrunken log2 fold change: -0.451

Sequence: RRIRLRPPRLPRPRPRPENWPRP
- shrunken log2 fold change: 0.046

Sequence: RRIRMRPPRLPRPRPRPAMIPRP
- shrunken log2 fold change: -0.0626

Sequence: RRIRQRPPRLPRPRPRPKWMPRP
- shrunken log2 fold change: -0.131

Sequence: RRIRGRPPRLPRPRPRPEAYPRP
- shrunken log2 fold change: 0.0504

Sequence: RRIRARPPRLPRPRPRPERGPRP
- shrunken log2 fold change: 0.305

Sequence: RRIRIRPPRLPRPRPRPCKFPRP
- shrunken log2 fold change: -0.549

Sequence: RRIRNRPPRLPRPRPRPFTEPRP
- shrunken log2 fold change: -0.236

Sequence: RRIRHRPPRLPRPRPRPQRVPRP
- shrunken log2 fold change: -0.139

Sequence: RRIRPRPPRLPRPRPRPAKMPRP
- shrunken log2 fold change: 0.0216

Sequence: RRIRQRPPRLPRPRPRPSLAPRP
- shrunken log2 fold change: 0.404

Sequence: RRIRCRPPRLPRPRPRPCIWPRP
- shrunken log2 fold change: -0.0143

Sequence: RRIRGRPPRLPRPRPRPEQQPRP
- shrunken log2 fold change: -0.0199

Sequence: RRIRHRPPRLPRPRPRPNVHPRP
- shrunken log2 fold change: -0.113

Sequence: RRIRYRPPRLPRPRPRPVSKPRP
- shrunken log2 fold change: -0.069

Sequence: RRIRRRPPRLPRPRPRPEKSPRP
- shrunken log2 fold change: 0.0868

Sequence: RRIRQRPPRLPRPRPRPKPQPRP
- shrunken log2 fold change: -0.0342

Sequence: RRIRRRPPRLPRPRPRPHQYPRP
- shrunken log2 fold change: 2.56

Sequence: RRIRCRPPRLPRPRPRPAGGPRP
- shrunken log2 fold change: 0.489

Sequence: RRIRQRPPRLPRPRPRPIAHPRP
- shrunken log2 fold change: -0.148

Sequence: RRIRRRPPRLPRPRPRPMDEPRP
- shrunken log2 fold change: 0.0223

Sequence: RRIRLRPPRLPRPRPRPAKMPRP
- shrunken log2 fold change: -0.169

Sequence: RRIRDRPPRLPRPRPRPTVHPRP
- shrunken log2 fold change: 0.231

Sequence: RRIRMRPPRLPRPRPRPDTFPRP
- shrunken log2 fold change: 0.403

Sequence: RRIRWRPPRLPRPRPRPMERPRP
- shrunken log2 fold change: -0.0173

Sequence: RRIRWRPPRLPRPRPRPYTEPRP
- shrunken log2 fold change: -0.118

Sequence: RRIRARPPRLPRPRPRPAHDPRP
- shrunken log2 fold change: 0.184

Sequence: RRIRSRPPRLPRPRPRPPLSPRP
- shrunken log2 fold change: 0.125

Sequence: RRIRWRPPRLPRPRPRPHAQPRP
- shrunken log2 fold change: 0.0298

Sequence: RRIRARPPRLPRPRPRPKPSPRP
- shrunken log2 fold change: 0.524

Sequence: RRIRQRPPRLPRPRPRPFVLPRP
- shrunken log2 fold change: -0.277

Sequence: RRIRYRPPRLPRPRPRPLIGPRP
- shrunken log2 fold change: -0.478

Sequence: RRIRRRPPRLPRPRPRPKSGPRP
- shrunken log2 fold change: -0.0499

Sequence: RRIRGRPPRLPRPRPRPWFPPRP
- shrunken log2 fold change: -0.132

Sequence: RRIRIRPPRLPRPRPRPPWKPRP
- shrunken log2 fold change: 0.089

Sequence: RRIRKRPPRLPRPRPRPNQNPRP
- shrunken log2 fold change: 1.18

Sequence: RRIRGRPPRLPRPRPRPPRHPRP
- shrunken log2 fold change: 0.818

Sequence: RRIRARPPRLPRPRPRPRLNPRP
- shrunken log2 fold change: 0.316

Sequence: RRIRKRPPRLPRPRPRPYATPRP
- shrunken log2 fold change: 0.0656

Sequence: RRIRCRPPRLPRPRPRPCCNPRP
- shrunken log2 fold change: -0.188

Sequence: RRIRPRPPRLPRPRPRPWYGPRP
- shrunken log2 fold change: -0.429

Sequence: RRIRARPPRLPRPRPRPYSSPRP
- shrunken log2 fold change: -0.28
